Measurements as given in patent US20030087407A1.

Columns and labels:
[1] = target: amyloid β-peptide 1-40 (Aβ1-40) (UniProt P05067); experiment: cell-based or functional assay
[2] = target: amyloid β-peptide 1-40 (Aβ1-40) (UniProt P05067); experiment: quenching of intrinsic Tyr10 fluorescence of Aβ1-40 in solution by added iAβ, non-linear regression to a rectangular hyperbola
[3] = target: amyloid β-peptide 1-42 (Aβ1-42) (UniProt P05067); experiment: cell-based or functional assay
[4] = target: amyloid β-peptide 1-40 (Aβ1-40) (UniProt P05067); experiment: quenching of intrinsic Tyr10 fluorescence of Aβ1-40 in solution at approximately 4 µM iAβ

Binder: RDLPFFPVPID [inhibitor of Aβ fibrillogenesis peptide (iAβ)]
- % of amyloid remaining, ThT fluorometric assay, 10-fold molar excess of peptide, 2 days [1]: 25.5 % of amyloid
- amyloid formation, thioflavine T fluorometric assay, 24 h, 5-fold molar excess of iAβ (% of amyloid detectable in the absence of inhibitor) [1]: 33.9%
- amyloid formation, thioflavine T fluorometric assay, 24 h, 20-fold molar excess of iAβ (% of amyloid detectable in the absence of inhibitor) [1]: 13.7%
- Kd [2]: 75.9 nM
- % of amyloid remaining, ThT fluorometric assay, 10-fold molar excess of peptide, 2 days [3]: 57.9 % of amyloid
- inhibition of amyloid formation, thioflavine T fluorometric assay, 24 h, 5-fold molar excess of iAβ (% of inhibition) [3]: 28.7
- inhibition of amyloid formation, thioflavine T fluorometric assay, 24 h, 20-fold molar excess of iAβ (% of inhibition) [3]: 72.3
- inhibition of amyloid formation, thioflavine T fluorometric assay, 24 h, 40-fold molar excess of iAβ (% of inhibition) [3]: 80.6
- reduction of preformed fibrils, thioflavine T fluorometric assay, 24 h, 40-fold molar excess of iAβ (% fibril reduction) [3]: 51
- maximum quenching of the total fluorescence [4]: 12.6%
